test system: Escherichia coli TOP10; experiment: shrunken log2 fold change of peptide-encoding DNA abundance (4.5 h post-induction vs induction); higher = less antimicrobial activity (less host growth inhibition); conditions: time post-induction: 4.5 h; library: site-saturation at positions 5, 18, 19, 20
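Also: peptides expressed intracellularly from a pBAD plasmid library in pooled LB shake-flask culture, induced with 0.3% L-arabinose, DNA abundance read by NGS, three biological replicates, DESeq2 with apeglm shrinkage.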

| Sequence | shrunken log2 fold change |
| --- | --- |
| RRIRWRPPRLPRPRPRPADVPRP | -0.305 |
| RRIRGRPPRLPRPRPRPFIRPRP | -0.257 |
| RRIRVRPPRLPRPRPRPEFHPRP | -0.489 |
| RRIRYRPPRLPRPRPRPSMCPRP | -0.24 |
| RRIRRRPPRLPRPRPRPGPGPRP | 0.598 |
| RRIRERPPRLPRPRPRPPQCPRP | -0.302 |
| RRIRNRPPRLPRPRPRPVCQPRP | -0.0808 |
| RRIRARPPRLPRPRPRPFRDPRP | -0.169 |
| RRIRWRPPRLPRPRPRPWCGPRP | 0.273 |
| RRIRWRPPRLPRPRPRPCHDPRP | 0.0415 |
| RRIRFRPPRLPRPRPRPASYPRP | -0.218 |
| RRIRGRPPRLPRPRPRPNHHPRP | 0.491 |
| RRIRSRPPRLPRPRPRPIQCPRP | 0.0235 |
| RRIRYRPPRLPRPRPRPVHKPRP | -0.564 |
| RRIRQRPPRLPRPRPRPPYTPRP | -0.552 |
| RRIRWRPPRLPRPRPRPPVPPRP | 0.469 |
| RRIRTRPPRLPRPRPRPHCWPRP | -0.0903 |
| RRIRFRPPRLPRPRPRPECWPRP | 0.675 |
| RRIRQRPPRLPRPRPRPNQEPRP | -0.0578 |
| RRIRDRPPRLPRPRPRPAAMPRP | 1.32 |
| RRIRTRPPRLPRPRPRPHPAPRP | 0.201 |
| RRIRLRPPRLPRPRPRPCIPPRP | -0.194 |
| RRIRCRPPRLPRPRPRPLKSPRP | -0.154 |

| Sequence | shrunken log2 fold change |
| --- | --- |
| RRIRHRPPRLPRPRPRPVPEPRP | 0.143 |
| RRIRPRPPRLPRPRPRPNNEPRP | -0.504 |
| RRIRRRPPRLPRPRPRPTPHPRP | 0.884 |
| RRIRRRPPRLPRPRPRPHRVPRP | -0.0232 |
| RRIRRRPPRLPRPRPRPQKWPRP | 0.136 |
| RRIRARPPRLPRPRPRPQCVPRP | 0.0695 |
| RRIRHRPPRLPRPRPRPYPRPRP | -0.27 |
| RRIRYRPPRLPRPRPRPAPYPRP | -0.557 |
| RRIRYRPPRLPRPRPRPPQDPRP | -0.362 |
| RRIRERPPRLPRPRPRPGHGPRP | -0.281 |
| RRIRVRPPRLPRPRPRPGWMPRP | 0.159 |
| RRIRTRPPRLPRPRPRPWQCPRP | 0.00408 |
| RRIRGRPPRLPRPRPRPWNFPRP | -0.289 |
| RRIRQRPPRLPRPRPRPTFPPRP | -0.0691 |
| RRIRFRPPRLPRPRPRPYKWPRP | -0.298 |
| RRIRIRPPRLPRPRPRPQKQPRP | -0.128 |
| RRIRWRPPRLPRPRPRPLPGPRP | 0.215 |
| RRIRQRPPRLPRPRPRPDLYPRP | -0.105 |
| RRIRLRPPRLPRPRPRPCRYPRP | -0.0582 |
| RRIRARPPRLPRPRPRPFKGPRP | -0.104 |
| RRIRVRPPRLPRPRPRPQNYPRP | -0.285 |
| RRIRSRPPRLPRPRPRPFEKPRP | 0.00827 |
| RRIRFRPPRLPRPRPRPADGPRP | 0.183 |

| Sequence | shrunken log2 fold change |
| --- | --- |
| RRIRGRPPRLPRPRPRPLDTPRP | 0.963 |
| RRIRCRPPRLPRPRPRPKKIPRP | 0.00547 |
| RRIRHRPPRLPRPRPRPDQWPRP | -0.108 |
| RRIRARPPRLPRPRPRPTSMPRP | 0.127 |
| RRIRNRPPRLPRPRPRPCAFPRP | -0.071 |
| RRIRLRPPRLPRPRPRPRDDPRP | 0.108 |
| RRIRMRPPRLPRPRPRPLALPRP | 0.0404 |
| RRIRIRPPRLPRPRPRPGEHPRP | -0.0955 |
| RRIRHRPPRLPRPRPRPYSHPRP | -0.129 |
| RRIRERPPRLPRPRPRPYMVPRP | -0.832 |
| RRIRTRPPRLPRPRPRPTHCPRP | 0.0158 |
| RRIRTRPPRLPRPRPRPWTRPRP | 0.064 |
| RRIRPRPPRLPRPRPRPPDPPRP | 0.742 |
| RRIRNRPPRLPRPRPRPQCGPRP | -0.241 |
| RRIRPRPPRLPRPRPRPWVQPRP | 0.0127 |
| RRIRRRPPRLPRPRPRPCTFPRP | -0.262 |
| RRIRSRPPRLPRPRPRPIAKPRP | -0.0775 |
| RRIRGRPPRLPRPRPRPKYWPRP | 1.13 |
| RRIRERPPRLPRPRPRPHPPPRP | 0.16 |
| RRIRPRPPRLPRPRPRPTMGPRP | 0.0476 |
| RRIRMRPPRLPRPRPRPSLSPRP | 0.22 |
| RRIRQRPPRLPRPRPRPYQAPRP | -0.232 |
| RRIRGRPPRLPRPRPRPGEFPRP | 0.329 |

| Sequence | shrunken log2 fold change |
| --- | --- |
| RRIRFRPPRLPRPRPRPTPLPRP | 0.3 |
| RRIRIRPPRLPRPRPRPRMSPRP | -0.323 |
| RRIRWRPPRLPRPRPRPIAMPRP | 0.256 |
| RRIRFRPPRLPRPRPRPNIAPRP | -0.255 |
| RRIRQRPPRLPRPRPRPTPAPRP | 0.953 |
| RRIRQRPPRLPRPRPRPHQSPRP | 0.0405 |
| RRIRHRPPRLPRPRPRPQAAPRP | -0.0209 |
| RRIRHRPPRLPRPRPRPQGKPRP | -0.0805 |
| RRIRMRPPRLPRPRPRPNLKPRP | 0.158 |
| RRIRDRPPRLPRPRPRPDLHPRP | -0.0715 |
| RRIRTRPPRLPRPRPRPDPSPRP | -0.0208 |
| RRIRGRPPRLPRPRPRPVWSPRP | 0.179 |
| RRIRARPPRLPRPRPRPIQEPRP | 0.116 |
| RRIRRRPPRLPRPRPRPHFHPRP | -0.217 |
| RRIRIRPPRLPRPRPRPHHQPRP | -0.41 |
| RRIRMRPPRLPRPRPRPEQCPRP | -0.00138 |
| RRIRHRPPRLPRPRPRPVILPRP | -1.12 |
| RRIRERPPRLPRPRPRPMIGPRP | 0.015 |
| RRIRVRPPRLPRPRPRPGFDPRP | 0.0552 |
| RRIRSRPPRLPRPRPRPRMTPRP | 0.251 |
| RRIRDRPPRLPRPRPRPKGMPRP | -0.00453 |
| RRIRSRPPRLPRPRPRPLWMPRP | -0.0686 |

Reference: the supplement of paper PMC9112550, “Optimization of the antimicrobial peptide Bac7 by deep mutational scanning” (BMC Biology, 2022)
